From patent US20140289906A1, “Compositions Having Dicamba Decarboxylase Activity and Methods of Use” (priority 2013, published 2014)
Entries after “also recorded” stand apart in the source; their conditions may differ.

Key:
[1] = 14C assay: 14CO2 capture from [14C]-carboxyl-labeled dicamba with IPTG-induced recombinant E. coli cells; details: for Dicamba Decarboxylase Activity: IPTG-induced recombinant E. coli cells, 14CO2 from [14C]-carboxyl-labeled dicamba; for Enzymatic Detection level: dicamba decarboxylation activity; for decarboxylation activity of dicamba: among the 108 sequences tested, recombinant E. coli cell assay
[2] = Dicamba decarboxylation activity of computationally designed protein variants and parents (Tables 4, 5); details: for dicamba decarboxylase activity (statement in the description): native proteins and designed variants, assay not specified; for Percent Activity Improvement Over Parent (%): parent (SEQ ID NO: 1 or SEQ ID NO: 41) = 100
[3] = GC/MS detection of 2,5-dichloro phenol (2,5-DCP); kinetic determination; format: biochemical; details: purified protein, dicamba
Procedure: The decarboxylated and demethylated product of dicamba, 2,5-dichloro phenol or 2,5-DCP (FIG. 1E) is measured using a GC/MS analytical procedure with either liquid injection after liquid/liquid extraction using toluene as the extraction solvent or gas injection using head space method. The head space sample analysis is carried out on an Agilent GC/MS system with a 6890A GC, a 5973N MSD and a CTC CombiPAL auto-sampler or with a 7890A GC, a 5975C MSD and an Agilent GC Sampler 80 auto-sampler with Phenomenex ZB-MultiResidue-1 column (30 m length, 0.25 mm diameter, 0.25 um film) or equivalent. GC/MS parameters are: GC inlet temperature, 200° C.; Carry gas, helium in constant flow mode (1.2 mL/min); Oven temperature program, 70° C. for 1 min and then ramp to 275° C. at 40° C./min. […] The reaction vial is transferred to a agitator for incubation at 90° C. for 4 min at 500 rpm. With a syringe preheated at 110° C., 1000 uL of head space is injected with sample fill speed at 100 uL/sec. A 2-mm diameter liner is used in sample inlet. The MS data acquisition is done in SIM (selected ion monitoring) mode. The positive ion at M/Z 162 for the molecular ion of 2,-5-DCP is monitored at retention time of 4.06 min. Solvent delay for MS acquisition is set at 3 min. GC/MS parameters for liquid sample analysis are the same as those for head space analysis, except that the volume of liquid injection is 1 uL.

[4] = LC-MS/MS detection of 4-chloro-3-methoxy phenol; format: biochemical; details: purified protein, dicamba
Procedure: The decarboxylated and chloro hydrolyzed product, 4-chloro-3-methoxy phenol (FIG. 1D), is measured using a LC-MS/MS analytical procedure. […] 10 ul is removed from the reaction mixture and mixed with 90 ul pre-chilled methanol followed by centrifugation at 14,000 rpm for 15 min at 4° C. 10 ul of the supernatant is then transferred into 170 ul ddH2O to achieve 5% methanol solution for injection. 50 ul of the prepared sample is injected into a 4000 Q Trap LC-MS/MS system for sample analysis. LC-MS/MS parameters are: Mobile Phase A, 2 mM ammonium acetate in water; Mobile Phase B, 2 mM ammonium acetate in methanol; Column, Aquasil, 100×2.1 mm, 3 μm, C18 column; Flow Rate, 0.6 ml/min. The MS/MS fragment 157/142 which is common to 4-chloro-3-methoxy phenol, 2-chloro-5-methoxy phenol, and 3-chloro-5-methoxy phenol is monitored at a retention time of 2.88 min.

[5] = 14C assay: 14CO2 capture from [14C]-carboxyl-labeled dicamba with purified protein; format: biochemical

Row | Molecule | Dicamba Decarboxylase Activity [1] | Enzymatic Detection level [1] | dicamba decarboxylase activity (statement in the description) [2] | decarboxylation activity of dicamba [1] | 2,5-DCP product detected [3] | Percent Activity Improvement Over Parent (%) [2] | 4-chloro-3-methoxy phenol product detected [4] | CO2 product detected [5]
1 | 100 (protein, listed as Reinekea blandensis) MAIIDCHGHYTTTPKGVEDYRNAQKAAVAKDPSFKGEKGQVVVSDDEIRESIENNQLKMQRERGTDLTIFSPRASWMGHHIGNEYTSQFWTEHQNDLIRRVCDLFPKNFAPVAQLPQSPGVDPAKSVPEIVRTVEQMGFIGINLNPDPSGGYWKDTSLADRAFYPIYEKMVEYDIPAMIHVSAACNDCFHTTGSHYLGADTTGFQQLIMSDVFKDFPSLKIIIPHGGGAVPYHWGRFRGLMQDQGYAPLEESALKNIYFDTCVYHQRGIDLLLDIVPTQNILFASEMIGAVRGIDPETGHNFDDTKRYIDNNTALNAEEKAMIFEGNARRVFSRLKTD | No | No | Neither of the native proteins have dicamba decarboxylase activity | – | – | – | – | –
2 | 95 (protein, listed as Pseudomonas fluorescens) MAKKPRIDMHSHFFPRISEQEAAKFDANHAPWLQVSAKGDTGSIMMGKNNFRPVYQALWDPAFRIEEMDAQGVDVQVTCATPVMFGYTWEANKAAQWAERMNDFALEFAAHNPQRIKVLAQVPLQDLDLACKEASRAVAAGHLGIQIGNHLGDKDLDDATLEAFLTHCANEDIPILVHPWDMMGGQRMKKWMLPWLVAMPAETQLAILSLILSGAFERIPKSLKICFGHGGGSFAFLLGRVDNAWRHRDIVREDCPRPPSEYVDRFFVDSAVFNPGALELLVSVMGEDRVMLGSDYPFPLGEQKIGGLVLSSNLGESAKDKIISGNASKFFNINV | No | No | not active for dicamba decarboxylation; also recorded: Neither of the native proteins have dicamba decarboxylase activity | – | – | – | – | –
3 | 41 (protein, listed as Polaromonas sp.) MANGKIALEEHFATEETLMDSAGFVPDKDWPELRSRLLDIQDRRVRLMDEHGIETMILSLNAPAVQAIADSTRANETARRANDFLAEQVAKQPTRFRGFAALPMQDPELAARELERCVKELGFVGALVNGFSQDNRSAVPLYYDMAQYWPFWETVQALDVPFYLHPRNPLPSDARIYDGHAWLLGPTWAFGQETAVHALRLMGSGLFDKYPALKIILGHMGEGLPYSMWRIDHRNAWIKTTPKYPAKRKIVDYFNENFYLTTSGNFRTQTLIDAILEIGADRILFSTDWPFENIDHAADWFENTSISEADRKKIGWGNAQNLFKLNR | High | High | natural activity; also recorded: native dicamba decarboxylase activity | showed decarboxylation activity of dicamba | detected | 100% | detected | detected
4 | 114 (protein, Dicamba decarboxylase variant clone DC.4.116) MAQGKVALEEHFAIPETLQDSAGAVPGDYWKELQHRLLDIQDTRLKLMDAHGIETMILSLNAPAVQAIPDRRKAIEIARRANDVLAEECAKRPDRFLAFAALPLQDPDAATEELQRCVNDLGFVGALVNGFSQEGDGQTPLYYDLPQYRPFWGEVEKLDVPFYLHPRNPLPQDSRIYDGHPWLLGPTWAFAQETAVHALRLMASGLFDEHPRLNIILGHMGEGLPYMMWRIDHRVAWVKLPPRYPAKRRFMDYFNENFHITTSGNFRTQTLIDAILEIGADRILFSTDWPFENIDHASDWFNATSIAEADRVKIGRTNARRLFKLDGA | – | High | displays an increase in dicamba decarboxylase activity | – | detected | – | detected | detected
5 | 108 (protein, listed as Staphylococcus aureus) MAKSITFEEHYVIEDIQKETMNAISADPKGVPMKVMLEGLEKKTGFTNADELSHHDERIQFMNNQDVQIQVLSYGNGSPSNLVGQKAIELCQKANDQLANYIAQYPNRFVGFATLPINEPEAAAREFERCINDLGFKGALIMGRAQDGFLDQDKYDIIFKTAENLDVPIYLHPAPVNSDIYQSYYKGNYPEVTAATFACFGYGWHIDVGIHAIHLVLSGIFDRYPKLNMIIGHWGEFIPFFLERMDEALFAEHLNHSVSYYFKNSFYITPSGMLTKPQFDLVKKEVGIDRILYAADYPYIEPEKLGVFLDELGLTDEEKEKISYTNGAKLLGLSSNN | High | High | – | showed decarboxylation activity of dicamba | detected | – | detected | detected
6 | 115 (protein, Dicamba decarboxylase variant clone DC.4.161) MAQGKVALEEHFAIPDTLTTYTTSGDYEKELKHRLLDIQDTRLKLMDAHGIETMILSLNAPGVQAIPDRRKAIEIARRANDVLAEECAKRPDRFLAFAALPLQDPDAATEELQRCVNDLGFVGALVNGFSQEGDGQTPLYYDLPQYRPFWGEVEKLDVPFYLHPRNPLPQDSRIYDGHPWLLGPTWAFAQETAVHALRLMASGLFDEHPRLNIILGHMGEGLPYMMWRIDHRNAWVKTPPRYPAKRRFMDYFNENFHITTSGNFRTQTLIDAILEIGADRILFSTDWPFENIDHASDWFNATSIAEADRVKIGRTNARRLFKLDGA | – | High | displays an increase in dicamba decarboxylase activity | – | detected | – | detected | detected
7 | 116 (protein, Dicamba decarboxylase variant clone DC.30.007) MAQGKVALEEHFAIPETLQDAAGFVPGDYWKELQHRLLDIQDRRVRLMDEHGIETMILSLNAPAVQAIADSTRANETARRANDFLAEQVAKQPTRFRGFAALPMQDPELAARELERCVKELGFVGALVNGFSQDNRSAVPLYYDMAQYWPFWETVQALDVPFYLHPRNPLPSDARIYDGHAWLLGPTWAFGQETAVHALRLMGSGLFDKYPALKIILGHMGEGLPYSMWRIDHRNAWIKTTPKYPAKRKIVDYFNENFYLTTSGNFRTQTLIDAILEIGADRILFSTDWPFENIDHAADWFENTSISEADRKKIGWGNAQNLFKLNR | – | High | improved dicamba decarboxylase activity; also recorded: displays an increase in dicamba decarboxylase activity | – | detected | 220% | detected | detected
8 | 32 (protein, Streptomyces violaceusniger) MARIIAIEEHFLDLDIARASRPEAERLSPAFAAAYGAGQGYNYSPAPEVLLDLEEGRVADMDAHGISMQVLSSLSTQQLPADVAVELVRKVNDRAAAAVAARPDRFAAFAALPTTVPEAAADELDRAVGELGFVGSMINGRTGDAFLDAPRFDAVLRRSAELRVPVYLHPGVPPVETSRSNYEGGLDPIVTARLQTSAWGWHVETGIHFLHLVLAGVFDRYPDLQVILGHWGEMVPFFLERIEEALPQQITHLDRPVGAYFRENAHITPSGMFSQAQLQFCVETVGIERIMFSVDYPFLGNDGAEAFLRQANLPPLATEKIAHLNAERLLALPS | High | High | – | showed decarboxylation activity of dicamba | detected | – | detected | detected
